{"source": "patent US9370316B2", "about": "“MRI estimation of contrast agent concentration using a neural network approach” (HENRY FORD HEALTH SYSTEM, priority 2007, dated 2016)", "experiment": "MRI (TOMROP) after injection of Gd-BSA in 9 L rat model of cerebral gliosarcoma", "assay_type": "in vivo, Fisher 344 rats", "conditions": "rats with 9 L cerebral tumor", "excerpt": "Given a “gold-standard” map of CA concentration, an ANN is trainable to directly estimate CA concentration from MRI image sets in which the time-varying behavior of the images depends, albeit nonlinearly, on CA concentration. Some of our studies using TOMROP (“T One by Multiple Read Out Pulses”) image sets as inputs in a set of tubular gel phantoms are supportive. In accordance with some embodiments, without limitation, an ANN for estimating CA concentration in the brain tissue of 9 male Fisher rats, using as inputs TOMROP signal changes after injection of Gd-BSA in a 9 L rat model of cerebral gliosarcoma (Ewing et al. 2006), was designed, trained, optimized, and tested. The MRI experiment was followed by quantitative autoradiography (“QAR”) using radioiodinated serum albumin (“RISA”), thus essentially replicating the MRI as to its timing, procedures, and indicator. The autoradiogram of the QAR procedure served as the training set.\nAnimal Studies: As part of our studies to compare MRI estimates of transfer constant to QAR estimates (results not included here), nine animals (Fisher 344 rats) with 9 L tumor (Ewing et al. 2006) were studied. Mean tumor age was 14.6±0.7 days (range 14 to 16 days) for all animals. […]", "data": [{"substance": "Gadolinium-labeled Bovine Serum Albumin [Gd-BSA]", "values": [{"measurement": "Extravasation of Gd-BSA", "value": "occurred within the tumors and at tumor borders in all animals"}]}]}
